The record followed here is the Human Domainome abundance scans (Beltran et al. 2025).

± gives the uncertainty stated by the source.

B1: SAM and SH3 domain-containing protein 1, residues 630 to 700; numbered along this chain, O94885 (parent)
chain: GRPPQPKSVEDLLDRINLKEHMPTFLFNGYEDLDTFKLLEEEDLDELNIRDPEHRAVLLTAVELLQEYDSN

The variants in the data set derive from B1. The data set can be described thus: abundance fitness (aPCA) (normalised: wild type 0, dead -1); higher = more abundant; growth selection in yeast, the domain comes from the species named. The note with it: Homo sapiens.
For the variant A56H, the abundance fitness was -0.057 ± 0.037.
Under A56R stands 0.191 ± 0.034; under A56M, -0.213 ± 0.046; under A56S, 0.011 ± 0.031.
As for A56L, the figure is -0.334 ± 0.035.
On to A56V, for which the abundance fitness is -0.493 ± 0.048.
Under A56N stands -0.108 ± 0.04; under A56W, -0.816 ± 0.086; under K7D, -0.213 ± 0.06.
Under K7E stands -0.002 ± 0.069.
Under G29W stands -0.937 ± 0.11; under G29T, -0.917 ± 0.073.
Turning to G29P, the abundance fitness was -0.967 ± 0.08.
For the variant G29F, the abundance fitness was -1.2 ± 0.14.
Under G29C stands -1.12 ± 0.13.
Regarding G29I, the abundance fitness was -0.893 ± 0.1.
G29Q: the abundance fitness is -0.959 ± 0.093.
As for G29M, the abundance fitness is -0.739 ± 0.089.
As for G29H, the figure is -0.831 ± 0.081; as for G29L, -0.907 ± 0.063; as for P6F, 0.085 ± 0.046.
As to P6E, the abundance fitness is -0.481 ± 0.084.
Under P6C stands -0.507 ± 0.071; under P6I, -0.151 ± 0.056.
Under N71A stands 0.116 ± 0.045; under N71H, 0.056 ± 0.048.
As for N71F, the figure is -0.117 ± 0.082.
N71K: the abundance fitness was determined as 0.007 ± 0.058.
As for H54S, the figure is -0.408 ± 0.04; as for H54N, -0.635 ± 0.064.
Under H54Q stands 0.059 ± 0.048; under H54C, -0.678 ± 0.058.
As for H54F, the figure is -1.03 ± 0.085; as for H54Y, -0.857 ± 0.074; as for H54I, -0.458 ± 0.054.
As to H54E, the abundance fitness was found to be 0.13 ± 0.052.
In the case of L18Y, the abundance fitness is -0.863 ± 0.089.
As for L18I, the figure is -0.716 ± 0.077.
Under L18T stands -0.73 ± 0.06; under L18R, -1.02 ± 0.066; under L18N, -0.777 ± 0.081.
With L18H, the abundance fitness is -0.714 ± 0.076.
As for L33H, the figure is -0.791 ± 0.083.
As for L33I, the figure is -0.187 ± 0.056; as for L33A, -0.883 ± 0.087.
Under L33N stands -0.764 ± 0.081.
With V57T, the abundance fitness was determined as 0.232 ± 0.038.
As for V57I, the figure is -0.059 ± 0.048; as for V57S, 0.243 ± 0.034.
As for V57G, the figure is -0.195 ± 0.049.
V57H: the abundance fitness is -0.166 ± 0.049.
Under V57M stands 0.067 ± 0.045; under V57A, 0.394 ± 0.037; under V57C, 0.107 ± 0.051.
Under D51M stands -0.845 ± 0.077; under D51T, -0.505 ± 0.048; under R50N, -0.027 ± 0.046.
With R50L, the abundance fitness is 0.091 ± 0.035.
As for R50A, the figure is -0.301 ± 0.043; as for N17R, -0.645 ± 0.051.
As for N17C, the figure is -0.486 ± 0.068; as for N17D, -0.234 ± 0.057; as for N17A, -0.349 ± 0.046.
As for E10N, the figure is -0.53 ± 0.061.
For E10T, the abundance fitness was -0.559 ± 0.052.
Take E10Y: the abundance fitness is -0.418 ± 0.055.
Under E10V stands -0.413 ± 0.053; under P52C, -0.565 ± 0.064.
Under P52L stands -0.61 ± 0.042.
Under P52Y stands -1.02 ± 0.097; under P52V, -0.5 ± 0.05; under P52S, -0.354 ± 0.039.
With P52R, the abundance fitness was -0.499 ± 0.041.
As for E31V, the figure is -0.003 ± 0.035; as for E31R, 0.127 ± 0.032.
Under E31L stands -0.37 ± 0.036; under E31I, -0.288 ± 0.049.
E31S: the abundance fitness is 0.196 ± 0.032.
As for V9W, the figure is -1.05 ± 0.17; as for V9H, -0.909 ± 0.079; as for E53A, -0.089 ± 0.041.
Under E53T stands -0.207 ± 0.043; under E53K, -0.131 ± 0.048; under D34P, -0.664 ± 0.056.
Take D34C: the abundance fitness is -0.468 ± 0.061.
Under D34Y stands -0.679 ± 0.059; under D34N, -0.123 ± 0.041.
Under D34V stands -0.719 ± 0.055; under A61F, -0.759 ± 0.094; under A61P, -0.731 ± 0.069.
As for A61T, the figure is -0.479 ± 0.055.
As to A61E, the abundance fitness came to 0.074 ± 0.062.
In the case of A61M, the abundance fitness was -0.324 ± 0.055.
Consider A61S, for which the abundance fitness was -0.225 ± 0.042.
Under M22Y stands 0.277 ± 0.038; under M22S, -0.375 ± 0.04; under M22R, -0.612 ± 0.046.
As to F36Q, the abundance fitness is -0.705 ± 0.11.
As for F36T, the abundance fitness was -0.64 ± 0.064.
As for F36L, the figure is -0.365 ± 0.043; as for F36R, -0.794 ± 0.058; as for F36K, -1.19 ± 0.14.
Regarding F36N, the abundance fitness was -0.719 ± 0.091.
As for F36H, the figure is -0.638 ± 0.081.
For the variant F36M, the abundance fitness was -0.354 ± 0.063.
Under F36G stands -0.642 ± 0.064; under R2H, -0.301 ± 0.085.
As for R2S, the figure is -0.446 ± 0.056.
Under Q5Y stands 0.202 ± 0.049; under Q5T, -0.365 ± 0.057; under T35M, -0.312 ± 0.059.
For T35E, the abundance fitness was -0.211 ± 0.067.
Under T35D stands 0.108 ± 0.051; under T35G, -0.442 ± 0.062.
For L47P, the abundance fitness was -0.799 ± 0.066.
Under L47F stands -0.828 ± 0.061.
Under L44F stands -0.38 ± 0.061.
Under L44V stands -0.791 ± 0.059.
For the variant L44R, the abundance fitness is -0.904 ± 0.065.
Under L44D stands -0.819 ± 0.087; under L44H, -0.941 ± 0.1; under L59W, -0.822 ± 0.079.
Turning to L59K, the abundance fitness was -0.206 ± 0.057.
As for L59S, the figure is -0.514 ± 0.043; as for L59N, -0.491 ± 0.063; as for L59G, -0.511 ± 0.052.
Under L59V stands -0.735 ± 0.058.
For L59P, the abundance fitness was -0.445 ± 0.051.
Take L59Q: the abundance fitness is -0.478 ± 0.071.
For the variant L59C, the abundance fitness is -0.678 ± 0.064.
As for E41I, the figure is -0.588 ± 0.072; as for E41S, -0.34 ± 0.042; as for E41D, -0.419 ± 0.075.
As for Y30S, the figure is -0.706 ± 0.052; as for Y30E, -0.515 ± 0.092.
Under Y30K stands -0.901 ± 0.099; under Y30W, -0.012 ± 0.054.
On to Y30D, for which the abundance fitness is -0.705 ± 0.077.
As for L13N, the figure is -0.802 ± 0.091.
As for L13C, the figure is -0.946 ± 0.1.
As to L13T, the abundance fitness was -0.861 ± 0.077.
As for L13G, the figure is -0.752 ± 0.072.
In the case of L13I, the abundance fitness was -1.04 ± 0.11.
Under L65N stands -0.841 ± 0.082.
As for L65G, the figure is -0.808 ± 0.076; as for L65F, -0.696 ± 0.072.
As for L65V, the figure is -0.452 ± 0.056; as for R15A, 0.055 ± 0.038; as for R15F, -0.286 ± 0.053.
As for R15W, the abundance fitness is -0.411 ± 0.071.
Under R15Q stands -0.017 ± 0.045; under R15E, -0.07 ± 0.055.
Consider R15P, for which the abundance fitness was -0.828 ± 0.072.
As for E42I, the figure is -0.477 ± 0.055; as for E42H, 0.055 ± 0.041; as for E42Y, -0.539 ± 0.056.
Under E42S stands 0.102 ± 0.034.
As for E42Q, the figure is -0.023 ± 0.049; as for E63L, -0.587 ± 0.046.
E63T: the abundance fitness was -0.226 ± 0.04.
Under E63R stands 0.133 ± 0.035; under E63V, -0.831 ± 0.059; under H21N, -0.689 ± 0.071.
Under H21R stands -0.921 ± 0.056; under H21V, -0.607 ± 0.056.
Under H21F stands -0.134 ± 0.046.
As to D32Y, the abundance fitness was -0.776 ± 0.07.
